Assay results: article PMC11921551

How the values were obtained:
[1] = molecular target: Recombinant human LDL receptor (LDLR) (human) (UniProt P01130); test: AFM force spectroscopy; LDLR on the AFM probe through PEG (traditional immersion method), LDL immobilised on mica; PBS pH 7.4, 37 °C; n = 200 interactions
[2] = molecular target: Recombinant human LDL receptor (LDLR) (human) (UniProt P01130); test: AFM force spectroscopy; receptor on the AFM probe tip through PEG (micro-droplet method), lipoprotein immobilised on mica; PBS pH 7.4, 37 °C, loading force 0.5 nN for 2 s, loading speed 200 nm/s; n = 200 interactions
[3] = molecular target: Recombinant human CD36 (human) (UniProt P16671); test: as above

Chain of Recombinant human LDL receptor (LDLR) (human) (P01130 22-788): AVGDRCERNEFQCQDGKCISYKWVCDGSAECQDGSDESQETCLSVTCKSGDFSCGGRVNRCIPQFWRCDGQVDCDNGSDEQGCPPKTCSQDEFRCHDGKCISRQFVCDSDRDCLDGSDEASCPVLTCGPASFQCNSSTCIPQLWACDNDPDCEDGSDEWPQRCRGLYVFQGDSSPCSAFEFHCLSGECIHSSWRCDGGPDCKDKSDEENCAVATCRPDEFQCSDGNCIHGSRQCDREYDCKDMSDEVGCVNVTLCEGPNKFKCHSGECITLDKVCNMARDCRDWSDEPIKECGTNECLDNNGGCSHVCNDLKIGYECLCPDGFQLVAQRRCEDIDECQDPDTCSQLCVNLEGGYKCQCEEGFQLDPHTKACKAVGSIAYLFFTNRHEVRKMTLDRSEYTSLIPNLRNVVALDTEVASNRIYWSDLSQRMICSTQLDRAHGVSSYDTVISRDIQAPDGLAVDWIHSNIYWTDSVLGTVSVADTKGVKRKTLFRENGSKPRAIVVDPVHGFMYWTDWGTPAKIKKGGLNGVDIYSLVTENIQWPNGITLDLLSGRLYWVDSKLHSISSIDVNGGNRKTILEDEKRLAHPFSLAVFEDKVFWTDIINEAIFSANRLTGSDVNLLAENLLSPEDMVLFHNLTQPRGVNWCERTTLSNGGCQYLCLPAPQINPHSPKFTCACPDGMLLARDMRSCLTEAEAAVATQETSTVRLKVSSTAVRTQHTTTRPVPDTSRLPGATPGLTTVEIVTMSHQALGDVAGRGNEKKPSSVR

Row | Substance | average specific interaction force [1] | average specific interaction force [2] | average interaction force [3]
1 | Human low-density lipoprotein (LDL), P04114 28-4563 | 322 pN | 231 pN | –
2 | Human oxidized low-density lipoprotein (oxLDL) (from UniProt P04114 28-4563) (complex) | – | – | 229 pN
